# According to patent EP2245064B1 (MEDIMMUNE LIMITED, dated 2014):
# Read-outs that look alike come from different tables or passages of the source.
# T1: human IL4Rα/Fc (R and D Systems 604-4R) (human, UniProt P24394 26-232)
# T1 construct: Bought product; also called human IL4Rα-Fc receptor; IL-4Rα/Fc (R&D systems Cat. No. 604-4R-050)
# T1 sequence (looked up): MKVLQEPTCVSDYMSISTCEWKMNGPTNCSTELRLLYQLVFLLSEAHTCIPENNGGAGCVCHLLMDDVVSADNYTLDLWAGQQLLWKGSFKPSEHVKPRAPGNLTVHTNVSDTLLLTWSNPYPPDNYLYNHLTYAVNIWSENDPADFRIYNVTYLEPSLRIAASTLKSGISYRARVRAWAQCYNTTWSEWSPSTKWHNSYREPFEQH
# Experiments:
# [1] = target: antibody used for epitope mapping in Example 5 (not named); assay: HTRF competition vs biotinylated human IL-4Rα/Fc for Eu-cryptate antibody
# [2] = target: antibody used for epitope mapping in Example 5 (not named); assay: as above; remark: listed apart in the source
# [3] = target: human IL-4Rα on TF-1 cells (human) (UniProt P24394); assay: cell-based or functional assay
# [4] = target: T1, human IL4Rα/Fc (R and D Systems 604-4R); assay: HTRF receptor-ligand competition, scFv vs biotinylated human IL4
IC50 [1] [nM],Binder,other results
1.9,MoLoop1HuIL-4Rα (receptor) MKVLQEPTCVSDYIRTSTCEWKMNGPTNCSTELRLLYQLVFLLSEAHTCIPENNGGAGCVCHLLMDDVVSADNYTLDLWAGQQLLWKGSFKPSEHVKPRAPGNLTVHTNVSDTLLLTWSNPYPPDNYLYNHLTYAVNIWSENDPADFRIYNVTYLEPSLRIAASTLKSGISYRARVRAWAQCYNTTWSEWSPSTKWHNSYREPFNPAFLYKVVGAADYKDDDDKAAHHHHHHHHHH,–
3.8,EM20 (receptor) MKVLQEPTCVSDYMSISTCEWKMNGPTNCSTELRLLYQLMFFFSENLTCIPENNGGAGCVCHLLMDDVVSADNYTLDLWAGQQLLWKGSFKPSEHVKPRAPGNLTVHTNVSDTLLLTWSNPYPPDNYLYNHLTYAVNIWSENDPADFRIYNVTYLEPSLRIAASTLKSGISYRARVRAWAQCYNTTWSEWSPSTKWHNSYREPFNPAFLYKVVGAADYKDDDDKAAHHHHHHHHHH,–
0.663,MoLoop4HuIL-4Rα (receptor) MKVLQEPTCVSDYMSISTCEWKMNGPTNCSTELRLLYQLVFLLSEAHTCIPENNGGAGCVCHLLMDDVVSADNYTLDLWAGQQLLWKGSFKPSEHVKPRAPGNLTVHTNVSDTLLLTWNNLYPSNNYLYNHLTYAVNIWSENDPADFRIYNVTYLEPSLRIAASTLKSGISYRARVRAWAQCYNTTWSEWSPSTKWHNSYREPFNPAFLYKVVGAADYKDDDDKAAHHHHHHHHHH,–
–,MoLoop3HuIL-4Rα (receptor) MKVLQEPTCVSDYMSISTCEWKMNGPTNCSTELRLLYQLVFLLSEAHTCIPENNGGAGCVCHLEMNRPVQSDRYTLDLWAGQQLLWKGSFKPSEHVKPRAPGNLTVHTNVSDTLLLTWSNPYPPDNYLYNHLTYAVNIWSENDPADFRIYNVTYLEPSLRIAASTLKSGISYRARVRAWAQCYNTTWSEWSPSTKWHNSYREPFNPAFLYKVVGAADYKDDDDKAAHHHHHHHHHH,% inhibition at 1000nM [1]: 58%; % inhibition at 1000nM [2]: 45%
1.4,MoLoop5HuIL-4Rα (receptor) MKVLQEPTCVSDYMSISTCEWKMNGPTNCSTELRLLYQLVFLLSEAHTCIPENNGGAGCVCHLLMDDVVSADNYTLDLWAGQQLLWKGSFKPSEHVKPRAPGNLTVHTNVSDTLLLTWSNPYPPDNYLYNHLTYAVNIWSENDPADFRIYNVTYLEPSLRIAASTLKSGISYRARVRAWSQILTGTWSEWSPSTKWHNSYREPFNPAFLYKVVGAADYKDDDDKAAHHHHHHHHHH,–
0.448,EM25 (receptor) MKVLQEPTCVSDYMSISTCEWKMNGPTNCSTELRLLYQLVFLLSENLTCIPENNGGAGCVCHLLMDDVVSADNYTLDLWAGQQLLWKGSFKPSEHVKPRAPGNLTVHTNVSDTLLLTWSNPYPPDNYLYNHLTYAVNIWSENDPADFRIYNVTYLEPSLRIAASTLKSGISYRARVRAWAQCYNTTWSEWSPSTKWHNSYREPFNPAFLYKVVGAADYKDDDDKAAHHHHHHHHHH,–
4.5,EM19 (receptor) MKVLQEPTCVSDYMSISTCEWKMNGPTNCSTELRLLYQLMFLEFSENLTCIPENNGGAGCVCHLLMDDVVSADNYTLDLWAGQQLLWKGSFKPSEHVKPRAPGNLTVHTNVSDTLLLTWSNPYPPDNYLYNHLTYAVNIWSENDPADFRIYNVTYLEPSLRIAASTLKSGISYRARVRAWAQCYNTTWSEWSPSTKWHNSYREPFNPAFLYKVVGAADYKDDDDKAAHHHHHHHHHH,–
19,EM22 (receptor) MKVLQEPTCVSDYMSISTCEWKMNGPTNCSTELRLLYQLMFFEFSEALTCIPENNGGAGCVCHLLMDDVVSADNYTLDLWAGQQLLWKGSFKPSEHVKPRAPGNLTVHTNVSDTLLLTWSNPYPPDNYLYNHLTYAVNIWSENDPADFRIYNVTYLEPSLRIAASTLKSGISYRARVRAWAQCYNTTWSEWSPSTKWHNSYREPFNPAFLYKVVGAADYKDDDDKAAHHHHHHHHHH,–
13,EM24 (receptor) MKVLQEPTCVSDYMSISTCEWKMNGPTNCSTELRLLYQLVFFEFSEAHTCIPENNGGAGCVCHLLMDDVVSADNYTLDLWAGQQLLWKGSFKPSEHVKPRAPGNLTVHTNVSDTLLLTWSNPYPPDNYLYNHLTYAVNIWSENDPADFRIYNVTYLEPSLRIAASTLKSGISYRARVRAWAQCYNTTWSEWSPSTKWHNSYREPFNPAFLYKVVGAADYKDDDDKAAHHHHHHHHHH,–
5.7,EM21 (receptor) MKVLQEPTCVSDYMSISTCEWKMNGPTNCSTELRLLYQLMFFELSENLTCIPENNGGAGCVCHLLMDDVVSADNYTLDLWAGQQLLWKGSFKPSEHVKPRAPGNLTVHTNVSDTLLLTWSNPYPPDNYLYNHLTYAVNIWSENDPADFRIYNVTYLEPSLRIAASTLKSGISYRARVRAWAQCYNTTWSEWSPSTKWHNSYREPFNPAFLYKVVGAADYKDDDDKAAHHHHHHHHHH,–
–,MoD1HuD2IL-4Rα (receptor) IKVLGEPTCFSDYIRTSTCEWFLDSAVDCSSQLCLHYRLMFFEFSENLTCIPRNSASTVCVCHMEMNRPVQSDRYQMELWAEHRQLWQGSFSPSGHVKPRAPGNLTVHTNVSDTLLLTWSNPYPPDNYLYNHLTYAVNIWSENDPADFRIYNVTYLEPSLRIAASTLKSGISYRARVRAWAQCYNTTWSEWSPSTKWHNSYREPFNPAFLYKVVGAADYKDDDDKAAHHHHHHHHHH,% inhibition at 1000nM [1]: 34%
–,"Antibody 24 (PGL) IgG (antibody, from another filing, V domains shown) VH: QVQLVQSGAEVKKPGASVKVSCKASGYAFTSYYMHWVRQAPGQGLEWMGIINPRGGSTSYAQKFQGRVTMTRDTSTSTVYMELSSLRSEDTAVYYCARGKYWMYDWGKGTLVTVSS VL: QSVLTQPPSVSAAPGQKVTISCSGGSSNIGNSYVSWYQQLPGTAPKLLIYDNNKRPSGIPDRFSGSKSGTSATLGITGLQTGDEADYFCGTWDTSTVWEWPFGTGTKLTVL","IC50, IL-4 induced TF-1 cell proliferation [3]: 0.0153 nM; IC50, IL-13 induced TF-1 cell proliferation [3]: 0.055 nM"
–,"Antibody 1 scFv (scFv, V domains shown) VH: QVQLVQSGAEVKKPGASVKVSCKASGYAFTSYYMHWARQAPGQGLEWMGIINPSGGSTSYAQKFQGRVTMTRDTSTSTVYMELSSLRSEDTAVYYCARGKWWLDYWGKGTLVTVSS VL: QSVLTQPPSVSAAPGQKVTISCSGGSSNIGNSYVSWYQQLPGTAPKLLIYDNNKRPSGIPDRFSGSKSGTSATLAITGLQTGDEADYYCGTWDTSLSANYVFGTGTKLTVL",Ki [4]: 12 nM
